Test results published in patent US20160115245A1 (VIB VZW, published 2016).

Legend:
[1] = target: T1, SOD1-CFP (human SOD1 fused to CFP, expressed in HeLa cells) (human, UniProt P00441 2-154); assay: Ni-agarose pull-down of HA-Myc-His6 tagged nanobody from co-transfected HeLa cells, blot anti-CFP
T1 construct: not shown: CFP of pCDNA3-CFP (Addgene #13030)

[2] = target: T2, recombinant human superoxide dismutase [Cu-Zn] (SOD1), wild type (human, UniProt P00441 2-154); assay: isothermal titration calorimetry, 25 C
T2 construct: Used immobilised in the dot blot and in solution in ITC; The construct is not described further; also called recombinant SOD1; SOD1 WT
T2 sequence (P00441 2-154 limits assumed): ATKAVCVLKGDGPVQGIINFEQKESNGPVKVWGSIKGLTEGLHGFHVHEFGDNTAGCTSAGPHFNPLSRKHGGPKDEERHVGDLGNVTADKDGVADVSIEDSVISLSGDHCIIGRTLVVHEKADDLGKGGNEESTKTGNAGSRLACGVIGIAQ

[3] = target: T2, recombinant human superoxide dismutase …; assay: isothermal titration calorimetry, 25 C; remark: listed apart in the source

T1 sequence (P00441 2-154): as the sequence (P00441 2-154 limits assumed) above

binding result [1] | Kd [2] | ΔH [3] | ΔS [3] | Binder
no binding |  |  |  | Nb4 (VHH, Same nanobody as m4, but in the HeLa-expressed HA-Myc-His6 format of m6-m8; also called Nb4, HA-Myc-His6 tagged, expressed in HeLa cells) VHH: QVQLQESGGGSVQTGGSLRLSCAASGYTFSSYCMGWFRQAPGKERELVSTIISDGSTYYADSVKGRFTISQDNAKNTVYLQMNNLKAEDTAIYYCAARSGGVCSGRASRYNYWGQGTQVTVSS
 | ~1 µM | -66.9 kJ/mol | -23 cal/mol/deg | Nb2, His6-tagged, expressed in E. coli (pET30a) (VHH, Dromedary-derived nanobody; also called SOD1 nanobody from dromedary library; not shown: His6 tag from pET30a (BamHI/XhoI)) VHH: QVQLQESGGGSVQAGGSLRLACVASGGDTRPYITYWMGWYRQAPGKEREGVATIYTGGSGTYYSDSVEGRFTISQDKAQRTVYLQMNDLKPEDTAMYYCAAGNGALPPGRRLSPQNMDTWGPGTQVTVSS
 | ~0.2 µM | -46 kJ/mol | -17 cal/mol/deg | Nb1, His6-tagged, expressed in E. coli (pET30a) (VHH, Alpaca-derived nanobody; also called SOD1 nanobody from alpaca library; not shown: His6 tag and the pET30a vector residues around it) VHH: QVQLQESGGGLVQPGGSLRLSCRASETLFSLYAMGWYRQAPGKQPELIATISGGGEGTGNYADPVKGRFTISRNNADNMVFLQMNNLKPEDTAVYYCNVYGTNLAPWGQGTQVTVSS
